From PMC6318328 (2019) come the findings set out here.

What all share (experiment): ITC
One assay has as its target T1, MLL3_(ePHD6)_(1055–1144) (human, UniProt Q8NEZ4 1055-1144).
T1 chain: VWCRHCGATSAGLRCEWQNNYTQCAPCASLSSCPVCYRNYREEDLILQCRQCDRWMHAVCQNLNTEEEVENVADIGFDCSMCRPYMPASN

Another assay concerns the target T2, MLL4_(ePHD6)_(1475–1564) (human, UniProt O14686 1475-1564).
T2 chain: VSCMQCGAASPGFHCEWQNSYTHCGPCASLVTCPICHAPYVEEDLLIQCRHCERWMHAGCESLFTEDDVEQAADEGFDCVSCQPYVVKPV

The next assay concerns the target T3, MLL3 ePHD6 E1097A (human, UniProt Q8NEZ4 1055-1144, E1097A).
T3 sequence: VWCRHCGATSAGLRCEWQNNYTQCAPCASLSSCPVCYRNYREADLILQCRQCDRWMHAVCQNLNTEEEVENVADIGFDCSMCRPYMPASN

In another assay the target is T4, MLL3 ePHD6 I1100L (human, UniProt Q8NEZ4 1055-1144, I1100 of MLL3 to leucine).
T4 sequence: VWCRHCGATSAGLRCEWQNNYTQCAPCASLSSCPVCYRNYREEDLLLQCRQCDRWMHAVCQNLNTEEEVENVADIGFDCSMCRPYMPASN

Where no end group is shown, it is not given here. [ ]: non-standard residue; d: D form. Lys(Me3) = C[N+](C)(C)CCCC[C@H](N)C(=O)O; Arg(Me) = CNC(=N)NCCC[C@H](N)C(=O)O

Take GKGGAK[Arg(Me)]HRKV [histone H4 peptide monomethylated at R17]: the results for the dissociation constant (Kd) with MLL3_(ePHD6)_(1055–1144) and in the assay with MLL4_(ePHD6)_(1475–1564) were 113 µM and 70 µM, respectively.

With GKGGAKRHRKV [histone H4 peptide H4_(11–21)], the Kd in the assay with MLL3 ePHD6 E1097A is 65 µM.

GKGGA[Lys(Me3)]RHRKV [H4K16me3 peptide]: the values for the Kd in the assay with MLL3 ePHD6 I1100L and with MLL4_(ePHD6)_(1475–1564) were 34 µM and 14 µM, respectively.
